This is an account of results in patent publication US12023367B2, “Immunomodulation for the long term prevention and treatment of autoimmune diseases and foreign tissue rejection” (University of Louisville Research Foundation, Inc., priority 2015, dated 2024).

Series [1] has as its target avidin (Gallus gallus, UniProt P02701). The following applies: cited from earlier work.
In series [2] the target is streptavidin (Streptomyces avidinii, UniProt P22629). Conditions: cited from earlier work.
Series [3] concerns C57BL/6 mice. Briefly: Mixed hematopoietic allogeneic chimerism after bone marrow transplantation, 100 cGy total body irradiation, with cyclophosphamide. The following applies: mouse, in vivo.
Protocol: C57BL/6 mice were subjected to 100 cGy total body irradiation followed by intravenous transplantation of 30×10^6 unmodified (BMC) or the combination of SA-FasL and SA-IL-2 (mFasL/IL-2-BMC) one day later. […] All groups were treated i.p. with rapamycin (2 mg/kg) daily for 10 doses starting on day 6 pot-transplantation. The test group was also treated starting on day 6 post-transplantation with both soluble SA-FasL (sFasL; 500 ng/daily for 15 doses) and IL-2 (25,000 IU/daily for 7 doses). Percent donor chimerism at various times post-transplantation was assessed using peripheral blood lymphocytes with antibodies against donor class I MHC molecule in flow cytometry.
The tissues were, processed into single cell suspension, stained with antibodies to the indicated cell surface markers, and analyzed using flow cytometry.
The subject of series [4] is NHP (rhesus monkey) PBMCs. Briefly: Apoptosis of NHP PBMC T cells cultured with SA-FasL (Annexin V, flow cytometry). Type of series: cell-based. The following applies: Teff (CD3+CD28-Fas+) or T central (CD3+CD28+Fas+) memory; PBMCs from 3 NHPs. Here is the method:
FIG. 3. SA-FasL induces apoptosis in nonhuman primate (NHP) Teff cells. NHP (rhesus monkey) PBMCs were cultured with SA-FasL and apoptosis was assessed using Annexin V by gating on CD3^+ T cells. Cells incubated with SA served as controls. Data is representative of PBMCs from 3 NHPs.
Inasmuch as individuals with onset of autoimmunity have a large pool of activated and memory T cells, we asked if SA-FasL is capable of inducing apoptosis in such cells. For this purpose, we used nonhuman primate (NHP) peripheral blood lymphocytes (PBMCs). The PBMCs from 3 different NHPs were incubated with SA-FasL protein and apoptosis was assessed using flow cytometry.
(A flow cytometer gives signals particle by particle.)

Series [5] has as its system C57BL/6 recipients of allogeneic BALB/c hearts. Kind of series: Cardiac allograft survival, BALB/c-to-C57BL/6 model. Type of series: in vivo, mice. Conditions: IL-2 7 doses or SA-FasL 15 doses i.p., no other manipulation. An excerpt:
We next tested if SA-FasL as a biologic can work as an immunomodulator to prevent rejection of vascularized solid grafts. Heart transplantation from BALB/c into C57BL/6 mice was used as a stringent allogeneic heart graft model.

In series [6] the test system is STZ diabetic C57BL/6 mice. Kind of series: Allogeneic islet transplantation under the kidney capsule (BALB/c-to-C57BL/6). The format is in vivo. The protocol: FIG. 1. Systemic immunomodulation with soluble SA-FasL synergizes with SA-FasL-engineered islets for long-term survival. BALB/c islets were engineered with SA-FasL (mSA-FasL) or SA control (mSA) proteins and transplanted under the kidney capsule of STZ diabetic C57BL/6 mice. Soluble (s)SA-FasL was administered i.p. at 2-5 μg/mouse on days 1, 3, 5, 7 post-transplantation. In selected groups rapamycin was used at 0.2 mg/kg daily for 15 days starting the day of transplantation.
Treatment with soluble SA-FasL only under a short course of rapamycin was also effective, achieving >80% graft survival.

The test system of series [7] is Female NOD mice. Briefly: Prevention of type 1 diabetes in NOD mice. Type of series: in vivo. Here is the method:
FIG. 5. Systemic treatment with SA-FasL protein delays the onset and incidence of Type 1 Diabetes in NOD. Female NOD mice were treated with the indicated agents at 10-week of age. Mice were then monitored for hyperglycemia by urine glucose test, which was confirmed by a blood glucose test. Mice with >200 mg/dl blood glucose levels were considered diabetic. Soluble (s)SA-FasL in PBS was used at 500 ng/injection intraperitoneally daily for 30 days. […] Female mice without any treatment were used as controls. In the SA-FasL only treatment group, 3 diabetic mice were treated with an additional 10 daily doses (black arrows) of SA-FasL soon after incidence of diabetes, resulting in temporary remission of hyperglycemia in ⅔ of those mice.
Inasmuch as antigen-experienced cells express Fas receptor on their surface, systemic treatment with SA-FasL has potential to eliminate such cells and control/reverse T1D without a major effect on quiescent T cell repertoire. This notion was tested by treating 10-wk female NOD mice daily with 500 ng SA-FasL protein for 30 days. […] We next asked the question if SA-FasL will work in synergy with IL-2. […] Indeed, T regulatory cells express FasL on their surface and control T effector responses by direct elimination via Fas receptor or indirectly by eliminating Fas-expressing DCs.

In series [8] the test system is STZ diabetic C57BL/6 mice. Kind of series: Intraportal allogeneic islet transplantation, SA-FasL and IL-2. The format is in vivo. The following applies: soluble SA-FasL as monotherapy. Here is the method: BALB/c islets were transplanted intraportally into STZ diabetic age-matched males and females C57BL/6 mice.
These islets were then immediately transplanted intraportally into diabetic mice (450-550 islets/mouse). Mice were then treated with the indicated proteins and doses. Animals were monitored for diabetes, and those with two consecutive daily measurements of ≥250 mg/dl blood glucose level were considered diabetic and confirmation of graft failure.

Series [9] concerns STZ diabetic C57BL/6 mice. Briefly: Intraportal allogeneic islet transplantation (BALB/c-to-C57BL/6), soluble SA-FasL. Type of series: in vivo. The protocol: FIG. 2. Survival of allogeneic islets transplanted intraportally with different treatment protocols. BALB/c islets were engineered with SA-FasL protein and transplanted intraportally into STZ diabetic C57BL/6 mice. Rapa was used daily at 0.2 mg/kg for 15 doses starting on day of transplantation. Soluble (s)FasL was used at the indicated dose and regimens.
To further establish SA-FasL as a soluble biologic, we tested its immunomodulatory capacity for the prevention of allogeneic islets transplanted using a more stringent model of intraportal islet transplantation. The rationale for this model is twofold. First, intraportal islet transplantation is the only site practiced in the clinic. Second, intraportal islet transplantation provides a much more stringent model as compared to subrenal islet transplantation. […] Therefore, we used this model to test if SA-FasL can be developed as a soluble biologic for the prevention and treatment of type I diabetes and foreign graft rejection.

Sequence of avidin (P02701 25-152): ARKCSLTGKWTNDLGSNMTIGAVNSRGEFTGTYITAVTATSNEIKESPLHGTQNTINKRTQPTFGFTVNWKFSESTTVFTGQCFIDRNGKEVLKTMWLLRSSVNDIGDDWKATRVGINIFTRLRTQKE
Sequence of streptavidin (P22629 25-183): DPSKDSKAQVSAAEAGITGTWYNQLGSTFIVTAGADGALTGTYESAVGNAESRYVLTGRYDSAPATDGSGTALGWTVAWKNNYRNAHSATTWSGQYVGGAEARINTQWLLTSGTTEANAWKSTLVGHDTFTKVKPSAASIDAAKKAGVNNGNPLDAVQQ

For `O=C(O)CCCC[C@@H]1SC[C@@H]2NC(=O)N[C@@H]21` [biotin], the affinity for avidin in series [1] was 10^15 M^−1. Moreover, in [2], the affinity for streptavidin is 10^13 M^−1.

In the case of `O=P1(N(CCCl)CCCl)NCCCO1` (stereo not shown) [cyclophosphamide], in series [3], the “establishment of mixed hematopoietic allogeneic chimerism” value is reported as “acted synergistically”.

B1: SA-FasL: chimeric protein of core streptavidin and the extracellular domain of FasL (rat FasL without metalloproteinase site); used unbound, in soluble form (protein)
chain: RSDYKDDDDKGTITGTWYNQLGSTFIVTAGADGALTGTYESAVGNAESRYVLTGRYDSAPATDGSGTALGWTVAWKNNYRNAHSATTWSGQYVGGAEARINTQWLLTSGATEANAWKSTLVGHDTFTKVKPSAASSGGGGSGGGGSGEFIANPSTPSETKKPRSVAHLTGNPRSRSIPLEWEDTYGTALISGVKYKKGGLVINEAGLYFVYSKVYFRGQSCNSQPLSHKVYMRNFKYPGDLVLMEEKKLNYCTTGQIWAHSSYLGAVFNLTVADHLYVNISQLSLINFEESKTFFGLYKL
Take B1: the “apoptosis of T cells” value in [4] is “Almost all T cells expressing Fas underwent apoptosis”. Also, in series [5], the “effect on cardiac graft survival, monotherapy” value was “moderate prolongation of the grafts”. Further, in series [6] (soluble SA-FasL 2-5 μg/mouse i.p. on days 1, 3, 5, 7, SA-FasL-islet grafts), the “time of delayed rejection” value is on record as roughly 70 days. Moreover, the “recipients with delayed rejection of allogeneic SA-FasL-islet grafts (fraction)” value in series [6] (soluble SA-FasL 2-5 μg/mouse i.p. on days 1, 3, 5, 7 post-transplantation, SA-FasL-engineered BALB/c islets under kidney capsule) is listed as “⅛”. In addition, in series [6] (soluble SA-FasL only, under a short course of rapamycin), the graft survival is listed as greater than 80%. Also, the toxicity result was “did not observe any sign of SA-FasL toxicity” in series [7] (500 ng SA-FasL daily for 30 days) and “without toxicity” in series [9] (soluble biologic at therapeutic doses). The “onset and incidence of T1D vs controls” value in series [7] (500 ng SA-FasL daily for 30 days, 10-wk female NOD) is “significantly delayed the onset and incidence of T1D”. Further, the “temporary remission of hyperglycemia (fraction of mice)” value in series [7] (3 diabetic mice given additional 10 daily doses of SA-FasL soon after incidence of diabetes) is recorded as “⅔”. Also, in series [8], the “allogeneic islets whose rejection was prevented” value is on record as roughly 60%. In addition, the islet graft survival result in [9] (4 doses of SA-FasL (2-5 μg/injection) i.v. or i.p. on days 1, 3, 5, 7, SA-FasL-engineered islets, intraportal) is “All BALB/c islets engineered with SA-FasL protein survived”. In series [9] (soluble FasL 1 μg injection daily for 20 days from day of transplantation, no islet engineering, intraportal), the “mice that rejected the graft” value is listed as “one out of six”. In series [9] (soluble FasL 1 μg injection daily for 20 days, the one rejecting mouse), the “day of graft rejection post-transplantation” value amounted to 80 days.
